Source: patent publication US20140087995A1 (published 2014)
Numbered stars: 1 amine (or outer) side, 2 acyl side, 3 side chain; on linkers, the order of the positions; unused ones are H or OH. Bridge positions count the residues as written; N and C are the ends. Side chains are listed from the residue outwards. Ends that are not written are not given here. * marks the point of attachment. C20 diacid = O=C(O)CCCCCCCCCCCCCCCCCCC(=O)*; γGlu = O=C(O)[C@H](CCC(=O)[*:2])N[*:1]; AEEA = NCCOCCOCC(=O)O

T1: human calcitonin receptor (human, UniProt P30988 25-474)
T1 sequence (looked up): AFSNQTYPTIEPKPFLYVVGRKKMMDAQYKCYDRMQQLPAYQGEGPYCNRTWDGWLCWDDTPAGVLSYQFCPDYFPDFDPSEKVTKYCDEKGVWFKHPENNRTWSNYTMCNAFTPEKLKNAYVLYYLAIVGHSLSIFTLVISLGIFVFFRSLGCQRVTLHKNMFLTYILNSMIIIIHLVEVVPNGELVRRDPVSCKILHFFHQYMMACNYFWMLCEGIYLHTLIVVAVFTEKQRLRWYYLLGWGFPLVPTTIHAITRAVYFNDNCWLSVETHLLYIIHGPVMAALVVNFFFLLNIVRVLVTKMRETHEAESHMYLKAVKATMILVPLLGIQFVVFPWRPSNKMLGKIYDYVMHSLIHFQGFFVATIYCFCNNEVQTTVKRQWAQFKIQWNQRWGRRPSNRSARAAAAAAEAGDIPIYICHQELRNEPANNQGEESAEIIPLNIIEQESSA

B1: N^ε1-[2-[2-[2-[[(4S)-4-carboxy-4-(19-carboxynonadecanoylamino)butanoyl]amino]ethoxy]ethoxy]acetyl]-[Arg14,Arg17,Pro21,Pro27,Pro31]-h-amylin (peptide)
peptide: K([AEEA-γGlu-C20 diacid])CNTATCATQRLARFLRHSSPNFGAIPSSTPVGSNTY-NH2
modifications: disulfide 2-7; N-terminus assumed
SMILES: CC[C@H](C)[C@H](NC(=O)[C@H](C)NC(=O)CNC(=O)[C@H](Cc1ccccc1)NC(=O)[C@H](CC(N)=O)NC(=O)[C@@H]1CCCN1C(=O)[C@H](CO)NC(=O)[C@H](CO)NC(=O)[C@H](Cc1c[nH]cn1)NC(=O)[C@H](CCCNC(=N)N)NC(=O)[C@H](CC(C)C)NC(=O)[C@H](Cc1ccccc1)NC(=O)[C@H](CCCNC(=N)N)NC(=O)[C@H](C)NC(=O)[C@H](CC(C)C)NC(=O)[C@H](CCCNC(=N)N)NC(=O)[C@H](CCC(N)=O)NC(=O)[C@@H](NC(=O)[C@H](C)NC(=O)[C@@H]1CSSC[C@H](NC(=O)[C@@H](N)CCCCNC(=O)COCCOCCNC(=O)CC[C@H](NC(=O)CCCCCCCCCCCCCCCCCCC(=O)O)C(=O)O)C(=O)N[C@@H](CC(N)=O)C(=O)N[C@@H]([C@@H](C)O)C(=O)N[C@@H](C)C(=O)N[C@@H]([C@@H](C)O)C(=O)N1)[C@@H](C)O)C(=O)N1CCC[C@H]1C(=O)N[C@@H](CO)C(=O)N[C@@H](CO)C(=O)N[C@H](C(=O)N1CCC[C@H]1C(=O)N[C@H](C(=O)NCC(=O)N[C@@H](CO)C(=O)N[C@@H](CC(N)=O)C(=O)N[C@H](C(=O)N[C@@H](Cc1ccc(O)cc1)C(N)=O)[C@@H](C)O)C(C)C)[C@@H](C)O
notes: analogue of human amylin; also called compound 64
B2: N^ε1-[2-[2-[2-[[(4S)-4-carboxy-4-(19-carboxynonadecanoylamino)butanoyl]amino]ethoxy]ethoxy]acetyl]-[Arg17,Pro21,Pro27,Pro31,His35]-h-amylin (peptide)
peptide: K([AEEA-γGlu-C20 diacid])CNTATCATQRLANFLRHSSPNFGAIPSSTPVGSHTY-NH2
modifications: disulfide 2-7; N-terminus assumed
SMILES: CC[C@H](C)[C@H](NC(=O)[C@H](C)NC(=O)CNC(=O)[C@H](Cc1ccccc1)NC(=O)[C@H](CC(N)=O)NC(=O)[C@@H]1CCCN1C(=O)[C@H](CO)NC(=O)[C@H](CO)NC(=O)[C@H](Cc1c[nH]cn1)NC(=O)[C@H](CCCNC(=N)N)NC(=O)[C@H](CC(C)C)NC(=O)[C@H](Cc1ccccc1)NC(=O)[C@H](CC(N)=O)NC(=O)[C@H](C)NC(=O)[C@H](CC(C)C)NC(=O)[C@H](CCCNC(=N)N)NC(=O)[C@H](CCC(N)=O)NC(=O)[C@@H](NC(=O)[C@H](C)NC(=O)[C@@H]1CSSC[C@H](NC(=O)[C@@H](N)CCCCNC(=O)COCCOCCNC(=O)CC[C@H](NC(=O)CCCCCCCCCCCCCCCCCCC(=O)O)C(=O)O)C(=O)N[C@@H](CC(N)=O)C(=O)N[C@@H]([C@@H](C)O)C(=O)N[C@@H](C)C(=O)N[C@@H]([C@@H](C)O)C(=O)N1)[C@@H](C)O)C(=O)N1CCC[C@H]1C(=O)N[C@@H](CO)C(=O)N[C@@H](CO)C(=O)N[C@H](C(=O)N1CCC[C@H]1C(=O)N[C@H](C(=O)NCC(=O)N[C@@H](CO)C(=O)N[C@@H](Cc1c[nH]cn1)C(=O)N[C@H](C(=O)N[C@@H](Cc1ccc(O)cc1)C(N)=O)[C@@H](C)O)C(C)C)[C@@H](C)O
notes: analogue of human amylin; also called compound 57
B3: N^ε1-[2-[2-[2-[[(4S)-4-carboxy-4-(19-carboxynonadecanoylamino)butanoyl]amino]ethoxy]ethoxy]acetyl]-[Arg17,Pro21,Pro27,Pro34,His35]-h-amylin (peptide)
peptide: K([AEEA-γGlu-C20 diacid])CNTATCATQRLANFLRHSSPNFGAIPSSTNVGPHTY-NH2
modifications: disulfide 2-7; N-terminus assumed
SMILES: CC[C@H](C)[C@H](NC(=O)[C@H](C)NC(=O)CNC(=O)[C@H](Cc1ccccc1)NC(=O)[C@H](CC(N)=O)NC(=O)[C@@H]1CCCN1C(=O)[C@H](CO)NC(=O)[C@H](CO)NC(=O)[C@H](Cc1c[nH]cn1)NC(=O)[C@H](CCCNC(=N)N)NC(=O)[C@H](CC(C)C)NC(=O)[C@H](Cc1ccccc1)NC(=O)[C@H](CC(N)=O)NC(=O)[C@H](C)NC(=O)[C@H](CC(C)C)NC(=O)[C@H](CCCNC(=N)N)NC(=O)[C@H](CCC(N)=O)NC(=O)[C@@H](NC(=O)[C@H](C)NC(=O)[C@@H]1CSSC[C@H](NC(=O)[C@@H](N)CCCCNC(=O)COCCOCCNC(=O)CC[C@H](NC(=O)CCCCCCCCCCCCCCCCCCC(=O)O)C(=O)O)C(=O)N[C@@H](CC(N)=O)C(=O)N[C@@H]([C@@H](C)O)C(=O)N[C@@H](C)C(=O)N[C@@H]([C@@H](C)O)C(=O)N1)[C@@H](C)O)C(=O)N1CCC[C@H]1C(=O)N[C@@H](CO)C(=O)N[C@@H](CO)C(=O)N[C@H](C(=O)N[C@@H](CC(N)=O)C(=O)N[C@H](C(=O)NCC(=O)N1CCC[C@H]1C(=O)N[C@@H](Cc1c[nH]cn1)C(=O)N[C@H](C(=O)N[C@@H](Cc1ccc(O)cc1)C(N)=O)[C@@H](C)O)C(C)C)[C@@H](C)O
notes: analogue of human amylin; also called compound 58
B4: N^ε1-[2-[2-[2-[[(4S)-4-carboxy-4-(19-carboxynonadecanoylamino)butanoyl]amino]ethoxy]ethoxy]acetyl]-[Arg17,Pro21,Pro27,Glu35]-h-amylin (peptide)
peptide: K([AEEA-γGlu-C20 diacid])CNTATCATQRLANFLRHSSPNFGAIPSSTNVGSETY-NH2
modifications: disulfide 2-7; N-terminus assumed
SMILES: CC[C@H](C)[C@H](NC(=O)[C@H](C)NC(=O)CNC(=O)[C@H](Cc1ccccc1)NC(=O)[C@H](CC(N)=O)NC(=O)[C@@H]1CCCN1C(=O)[C@H](CO)NC(=O)[C@H](CO)NC(=O)[C@H](Cc1c[nH]cn1)NC(=O)[C@H](CCCNC(=N)N)NC(=O)[C@H](CC(C)C)NC(=O)[C@H](Cc1ccccc1)NC(=O)[C@H](CC(N)=O)NC(=O)[C@H](C)NC(=O)[C@H](CC(C)C)NC(=O)[C@H](CCCNC(=N)N)NC(=O)[C@H](CCC(N)=O)NC(=O)[C@@H](NC(=O)[C@H](C)NC(=O)[C@@H]1CSSC[C@H](NC(=O)[C@@H](N)CCCCNC(=O)COCCOCCNC(=O)CC[C@H](NC(=O)CCCCCCCCCCCCCCCCCCC(=O)O)C(=O)O)C(=O)N[C@@H](CC(N)=O)C(=O)N[C@@H]([C@@H](C)O)C(=O)N[C@@H](C)C(=O)N[C@@H]([C@@H](C)O)C(=O)N1)[C@@H](C)O)C(=O)N1CCC[C@H]1C(=O)N[C@@H](CO)C(=O)N[C@@H](CO)C(=O)N[C@H](C(=O)N[C@@H](CC(N)=O)C(=O)N[C@H](C(=O)NCC(=O)N[C@@H](CO)C(=O)N[C@@H](CCC(=O)O)C(=O)N[C@H](C(=O)N[C@@H](Cc1ccc(O)cc1)C(N)=O)[C@@H](C)O)C(C)C)[C@@H](C)O
notes: analogue of human amylin; also called compound 26
B5: N^ε1-[2-[2-[2-[[(4S)-4-carboxy-4-(19-carboxynonadecanoylamino)butanoyl]amino]ethoxy]ethoxy]acetyl]-[Arg17,Pro21,Pro27,Pro28,Pro34]-h-amylin (peptide)
peptide: K([AEEA-γGlu-C20 diacid])CNTATCATQRLANFLRHSSPNFGAIPPSTNVGPNTY-NH2
modifications: disulfide 2-7; N-terminus assumed
SMILES: CC[C@H](C)[C@H](NC(=O)[C@H](C)NC(=O)CNC(=O)[C@H](Cc1ccccc1)NC(=O)[C@H](CC(N)=O)NC(=O)[C@@H]1CCCN1C(=O)[C@H](CO)NC(=O)[C@H](CO)NC(=O)[C@H](Cc1c[nH]cn1)NC(=O)[C@H](CCCNC(=N)N)NC(=O)[C@H](CC(C)C)NC(=O)[C@H](Cc1ccccc1)NC(=O)[C@H](CC(N)=O)NC(=O)[C@H](C)NC(=O)[C@H](CC(C)C)NC(=O)[C@H](CCCNC(=N)N)NC(=O)[C@H](CCC(N)=O)NC(=O)[C@@H](NC(=O)[C@H](C)NC(=O)[C@@H]1CSSC[C@H](NC(=O)[C@@H](N)CCCCNC(=O)COCCOCCNC(=O)CC[C@H](NC(=O)CCCCCCCCCCCCCCCCCCC(=O)O)C(=O)O)C(=O)N[C@@H](CC(N)=O)C(=O)N[C@@H]([C@@H](C)O)C(=O)N[C@@H](C)C(=O)N[C@@H]([C@@H](C)O)C(=O)N1)[C@@H](C)O)C(=O)N1CCC[C@H]1C(=O)N1CCC[C@H]1C(=O)N[C@@H](CO)C(=O)N[C@H](C(=O)N[C@@H](CC(N)=O)C(=O)N[C@H](C(=O)NCC(=O)N1CCC[C@H]1C(=O)N[C@@H](CC(N)=O)C(=O)N[C@H](C(=O)N[C@@H](Cc1ccc(O)cc1)C(N)=O)[C@@H](C)O)C(C)C)[C@@H](C)O
notes: analogue of human amylin; also called compound 55
B6: N^ε1-[2-[2-[2-[[(4S)-4-carboxy-4-(19-carboxynonadecanoylamino)butanoyl]amino]ethoxy]ethoxy]acetyl]-[Arg17,Pro21,Pro27,Pro31]-h-amylin (peptide)
peptide: K([AEEA-γGlu-C20 diacid])CNTATCATQRLANFLRHSSPNFGAIPSSTPVGSNTY-NH2
modifications: disulfide 2-7; N-terminus assumed
SMILES: CC[C@H](C)[C@H](NC(=O)[C@H](C)NC(=O)CNC(=O)[C@H](Cc1ccccc1)NC(=O)[C@H](CC(N)=O)NC(=O)[C@@H]1CCCN1C(=O)[C@H](CO)NC(=O)[C@H](CO)NC(=O)[C@H](Cc1c[nH]cn1)NC(=O)[C@H](CCCNC(=N)N)NC(=O)[C@H](CC(C)C)NC(=O)[C@H](Cc1ccccc1)NC(=O)[C@H](CC(N)=O)NC(=O)[C@H](C)NC(=O)[C@H](CC(C)C)NC(=O)[C@H](CCCNC(=N)N)NC(=O)[C@H](CCC(N)=O)NC(=O)[C@@H](NC(=O)[C@H](C)NC(=O)[C@@H]1CSSC[C@H](NC(=O)[C@@H](N)CCCCNC(=O)COCCOCCNC(=O)CC[C@H](NC(=O)CCCCCCCCCCCCCCCCCCC(=O)O)C(=O)O)C(=O)N[C@@H](CC(N)=O)C(=O)N[C@@H]([C@@H](C)O)C(=O)N[C@@H](C)C(=O)N[C@@H]([C@@H](C)O)C(=O)N1)[C@@H](C)O)C(=O)N1CCC[C@H]1C(=O)N[C@@H](CO)C(=O)N[C@@H](CO)C(=O)N[C@H](C(=O)N1CCC[C@H]1C(=O)N[C@H](C(=O)NCC(=O)N[C@@H](CO)C(=O)N[C@@H](CC(N)=O)C(=O)N[C@H](C(=O)N[C@@H](Cc1ccc(O)cc1)C(N)=O)[C@@H](C)O)C(C)C)[C@@H](C)O
notes: analogue of human amylin; also called compound 49

Molecular target: T1, human calcitonin receptor
Experiment: cell-based or functional assay

| Binder | hCTR funct. EC50 |
| --- | --- |
| B1 | 22.9 nM |
| B2 | 3.12 nM |
| B3 | 1.03 nM |
| B4 | 6.34 nM |
| B5 | 0.731 nM |
| B6 | 2.39 nM |
